From publication PMC11472053, “Structural basis of DNA recognition by BEN domain proteins reveals a role for oligomerization in unmethylated DNA selection by BANP” (Nucleic Acids Research, 2024) come the findings set out here.

In general, Kd refers to the concentration at which binding is half-saturated.

In data set [1] the target is T1, BANP BEN-DBD (human, UniProt Q8N9N5 205-519).
T1 sequence: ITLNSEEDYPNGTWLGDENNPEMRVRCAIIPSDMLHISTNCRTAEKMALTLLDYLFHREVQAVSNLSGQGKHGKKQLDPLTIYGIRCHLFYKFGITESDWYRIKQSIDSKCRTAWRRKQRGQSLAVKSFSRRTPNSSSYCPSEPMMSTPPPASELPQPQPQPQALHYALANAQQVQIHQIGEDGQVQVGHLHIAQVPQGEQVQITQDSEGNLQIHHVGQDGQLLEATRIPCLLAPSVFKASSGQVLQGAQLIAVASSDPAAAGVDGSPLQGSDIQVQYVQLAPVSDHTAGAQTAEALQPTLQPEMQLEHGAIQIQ
Kind of data set: ITC; ITC: 20 mM Tris pH 7.5, 200 mM NaCl, 2 mM beta-mercaptoethanol, 20 C; EMSA: 20 mM Tris pH 7.0, 200 mM NaCl, 2 mM DTT, 4 C, 1.2% agarose in TAE. The note with it: protein: recombinant; tags: His-SUMO or His-MBP, cleaved; blunt, self-complementary. Background: Isothermal titration calorimetry measures the heat released or taken up as one component is titrated into another.

The target in data set [2] is T2, GST-BANP BEN (human, UniProt Q8N9N5 205-325).
T2 sequence: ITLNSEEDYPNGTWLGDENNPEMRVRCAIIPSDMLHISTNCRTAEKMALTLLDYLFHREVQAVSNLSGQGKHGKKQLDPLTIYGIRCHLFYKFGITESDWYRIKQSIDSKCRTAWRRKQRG
Described as above. The note with it: protein: recombinant; tags: N-terminal GST fusion; chain copies: 2; blunt, self-complementary.

In data set [3] the target is T3, BANP BEN R316A (human, UniProt Q8N9N5 205-325, R316A).
T3 sequence: T2 sequence with R112A
The description is as above. The note with it: protein: recombinant; tags: His-SUMO or His-MBP, cleaved; chain copies: 2; blunt, self-complementary.

In data set [4] the target is T4, BANP BEN K278A (human, UniProt Q8N9N5 205-325, K278A).
T4 sequence: T2 sequence with K74A
The description is as above. The note with it: protein: recombinant; tags: His-SUMO or His-MBP, cleaved; chain copies: 2; blunt, self-complementary.

In data set [5] the target is T5, BANP BEN S313A (human, UniProt Q8N9N5 205-325, S313A).
T5 sequence: T2 sequence with S109A
The data set is described as above. The note with it: protein: recombinant; tags: His-SUMO or His-MBP, cleaved; chain copies: 2; blunt, self-complementary.

In data set [6] the target is T6, BANP full-length WT (human, UniProt Q8N9N5 1-519).
T6 sequence: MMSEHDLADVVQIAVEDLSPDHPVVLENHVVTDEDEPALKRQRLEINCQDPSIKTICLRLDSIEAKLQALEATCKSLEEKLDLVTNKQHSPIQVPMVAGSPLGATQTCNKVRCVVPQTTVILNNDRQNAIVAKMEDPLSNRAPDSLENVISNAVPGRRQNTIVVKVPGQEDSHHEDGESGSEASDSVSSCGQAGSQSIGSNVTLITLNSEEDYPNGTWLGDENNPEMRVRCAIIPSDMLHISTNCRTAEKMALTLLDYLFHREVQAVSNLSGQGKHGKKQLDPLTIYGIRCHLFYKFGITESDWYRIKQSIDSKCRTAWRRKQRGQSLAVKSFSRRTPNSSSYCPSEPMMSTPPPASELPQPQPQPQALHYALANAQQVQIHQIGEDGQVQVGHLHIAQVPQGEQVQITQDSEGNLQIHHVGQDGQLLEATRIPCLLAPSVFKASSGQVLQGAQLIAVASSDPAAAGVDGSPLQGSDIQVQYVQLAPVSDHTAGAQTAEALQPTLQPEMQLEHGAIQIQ
Described as above. The note with it: protein: recombinant; tags: His-SUMO or His-MBP, cleaved; chain copies: 4; blunt, self-complementary.

In data set [7] the target is T7, BANP BEN K314A (human, UniProt Q8N9N5 205-325, K314A).
T7 sequence: T2 sequence with K110A
The data set is described as above. The note with it: protein: recombinant; tags: His-SUMO or His-MBP, cleaved; chain copies: 2; blunt, self-complementary.

Data set [8] addresses T8, BANP DBD (human, UniProt Q8N9N5 361-519).
T8 sequence: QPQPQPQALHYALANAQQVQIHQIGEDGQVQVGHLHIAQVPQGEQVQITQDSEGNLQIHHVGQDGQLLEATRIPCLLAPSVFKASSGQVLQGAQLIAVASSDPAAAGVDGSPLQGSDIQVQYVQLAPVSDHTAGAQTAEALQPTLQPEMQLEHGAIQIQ
The data set can be described thus: EMSA; ITC: 20 mM Tris pH 7.5, 200 mM NaCl, 2 mM beta-mercaptoethanol, 20 C; EMSA: 20 mM Tris pH 7.0, 200 mM NaCl, 2 mM DTT, 4 C, 1.2% agarose in TAE. The note with it: protein: recombinant; tags: His-SUMO or His-MBP, cleaved; blunt, self-complementary. (In general: In EMSA bound probe runs differently from free probe, usually more slowly.)

Numbering of substitutions follows the chain as printed.

B1: 12-CGCG (dsDNA)
DNA 1: ATCTCGCGAGAT
DNA 2: ATCTCGCGAGAT
On to B1, for which the Kd in data set [1] came to 3.1 ± 0.3 µM; in data set [2] it was 2.3 ± 0.4 µM; in data set [3], 16.8 ± 1.6 µM; in data set [4], 35.6 ± 4.1 µM; in data set [5], 7.9 ± 1.1 µM; in data set [6], 3.4 ± 0.6 µM. In addition, the Kd in data set [7] came out at 25.2 ± 3.8 µM. Besides, the binding result in data set [8] is reported as “no binding”.
